Data: US20200231674A1 (published 2020)

Target: T1, human CD8 alpha (on transfected HEK293T cells) (human, UniProt P01732 22-235)
T1 construct: whole, on cells
Assay: FACS on HEK293-T cells transfected with human CD8a (Example 2, FIG. 4)
Protocol: The binding characteristics of various VHHs (as described in Example 1) were tested by flow cytometry. HEK293-T cells were transfected with a human CD8a expression plasmid and stained with the His-tagged VHHs at […], followed by staining with an anti-His Fitc conjugated antibody. Binding was measured by detecting cellular fluorescence via flow cytometry.

T1 sequence (P01732 22-235): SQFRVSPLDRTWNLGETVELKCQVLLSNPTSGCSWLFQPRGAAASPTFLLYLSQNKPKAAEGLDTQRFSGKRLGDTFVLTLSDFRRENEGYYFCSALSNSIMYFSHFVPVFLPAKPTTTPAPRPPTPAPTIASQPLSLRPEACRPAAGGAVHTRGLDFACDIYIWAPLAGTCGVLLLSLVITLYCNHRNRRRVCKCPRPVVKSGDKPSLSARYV

binding result: binds
B1: 2CDA 74 (VHH)
VHH: QVQLQESGGGLVQAGGSLRLSCAVSGFTFDNYAIGWFRQAPGKEREGVSCISRSDGSTYYADSVRGRFTISSDNAKNTVYLQMNSLKPEDTAVYYCAAETSADSGEFRFGWVLKPSLYDYWGQGTQVTVSS
notes: entry carries AAA-HA-His6 tail (pMECS format); free cysteine in CDR2 at position 50
